Experimental data: article PMC5766207

Legend:
σJ = biological target: T1, σJ (Mycobacterium tuberculosis, UniProt L0TCG5 1-312); assay: EMSA
T1 sequence: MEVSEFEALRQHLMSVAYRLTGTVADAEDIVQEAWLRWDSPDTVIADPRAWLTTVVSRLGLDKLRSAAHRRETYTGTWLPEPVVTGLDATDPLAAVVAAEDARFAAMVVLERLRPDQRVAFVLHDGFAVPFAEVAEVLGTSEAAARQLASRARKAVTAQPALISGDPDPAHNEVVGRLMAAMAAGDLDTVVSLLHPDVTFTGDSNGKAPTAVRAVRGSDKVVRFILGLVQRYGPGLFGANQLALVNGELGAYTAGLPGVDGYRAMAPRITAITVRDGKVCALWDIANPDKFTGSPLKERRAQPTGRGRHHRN

σJSnoaL_2 = biological target: T2, σJSnoaL_2 (Mycobacterium tuberculosis, UniProt L0TCG5 162-312); assay: EMSA
T2 sequence: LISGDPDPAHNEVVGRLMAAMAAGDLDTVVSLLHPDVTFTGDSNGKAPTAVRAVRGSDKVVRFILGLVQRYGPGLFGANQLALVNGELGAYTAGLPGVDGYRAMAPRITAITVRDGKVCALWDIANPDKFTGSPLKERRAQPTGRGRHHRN

B1: wt-sigIp (dsDNA)
DNA 1: GCTGTCACATTCGGCGGGGCTGTCTCGTCCTTGA
DNA 2: TCAAGGACGAGACAGCCCCGCCGAATGTGACAGC
B1 was tested. Which Kd (σJ) did it give?
The Kd was 4.96 ± 0.94 µM.

Does B1 bind (σJSnoaL_2)?
Result: no binding
